How the values were obtained:
[1] = target: GLP-2R R242^ECL1A (human) (UniProt O95838); assay: radioligand binding; competition on transiently transfected COS-7 cells: unlabeled GLP-2(1–33) 0.1 nM to 1 μM against 10–15 pM [125I]GLP-2(1–33, M10Y); 4 h, 4 °C; 50 mM HEPES pH 7.4, 1 mM CaCl2, 5 mM MgCl2, 0.5% BSA; three-parameter logistic fit
[2] = target: GLP-2R Y252^ECL1A (human) (UniProt O95838); assay: as above
[3] = target: GLP-2R W340^5.36A (human) (UniProt O95838); assay: as above
[4] = target: Human GLP-2R WT (1–553) (human) (UniProt O95838); assay: as above
[5] = target: GLP-2R Y182^1.43A (human) (UniProt O95838); assay: as above
[6] = target: GLP-2R N247^ECL1A (human) (UniProt O95838); assay: as above
[7] = target: GLP-2R K414^7.35 A (human) (UniProt O95838); assay: as above
[8] = target: GLP-2R N334^ECL2 A (human) (UniProt O95838); assay: as above
[9] = target: T1, GLP-2R mutant ECL1 (poly-alanine) (Homo sapiens, UniProt O95838, D244A/DELINS236-257AAAAAAAAAAAAAAAAAAAAAA/E246A/E255A/G248A/K241A/L253A/M250A/M256A/N237A/N245A/N247A/P243A/R242A/S238A/S240A/S251A/S254A/S257A/W249A/Y236A/Y239A/Y252A); assay: radioligand competition binding, ECL1 (poly-alanine); conditions: COS-7, ECL1 (residues 236–257) substituted by poly-alanine; [^125I]GLP-2(1–33, M10Y) 10–15 pM, 4 h, 4 °C; mean ± SEM, n ≥ 3 in duplicate
T1 construct: WT (1–553); expressed in transfected cells; host or cells: COS-7
Method: A stepwise oxidation reaction was performed by addition of 6 aliquots of 5 µL ChloramineT (30 µL/mL) with a 1-min interval during constant stirring. The reaction was terminated by the addition of 400 µL phase A (0.1% trifluoracetic acid) before being fractionated into 1 mL volume by reverse-phase high-performance liquid chromatography (RP-HPLC, Waters 600 SimiPrep system) on a C18 column. The iodinated protein was […] by increasing concentrations of phase B (Acetonitrile + 0.1% TFA) and tested for competitive binding ability.
One day before transfection, the COS-7 cells were seeded in 75 cm^2 culture flasks (3 million cells/flask) in DMEM, containing 3.9 g/L NaHCO3 and supplemented with 10% FBS, 1% L-glutamine, 180 units/mL penicillin and 45 µg/mL streptomycin. […] Following 24-h incubation, the cells were transferred to Costa® microtiter plates (150,000 cells/well, PerkinElmer) to achieve a 5%–10% specific binding. Forty-eight hours after transfection, the cells were washed twice in binding buffer (50 mM HEPES, pH 7.4, supplemented with 1 mM CaCl2, 5 mM MgCl2 and 0.5% (w/v) BSA) and incubated for 15 min at 4 °C. […] The cells were then washed twice in binding buffer (4 °C), lysed and counted for radioactivity using a Wallac Gamma Counter (PerkinElmer).

GLP-2R Y252^ECL1A (human), sequence (O95838 whole entry Y252A): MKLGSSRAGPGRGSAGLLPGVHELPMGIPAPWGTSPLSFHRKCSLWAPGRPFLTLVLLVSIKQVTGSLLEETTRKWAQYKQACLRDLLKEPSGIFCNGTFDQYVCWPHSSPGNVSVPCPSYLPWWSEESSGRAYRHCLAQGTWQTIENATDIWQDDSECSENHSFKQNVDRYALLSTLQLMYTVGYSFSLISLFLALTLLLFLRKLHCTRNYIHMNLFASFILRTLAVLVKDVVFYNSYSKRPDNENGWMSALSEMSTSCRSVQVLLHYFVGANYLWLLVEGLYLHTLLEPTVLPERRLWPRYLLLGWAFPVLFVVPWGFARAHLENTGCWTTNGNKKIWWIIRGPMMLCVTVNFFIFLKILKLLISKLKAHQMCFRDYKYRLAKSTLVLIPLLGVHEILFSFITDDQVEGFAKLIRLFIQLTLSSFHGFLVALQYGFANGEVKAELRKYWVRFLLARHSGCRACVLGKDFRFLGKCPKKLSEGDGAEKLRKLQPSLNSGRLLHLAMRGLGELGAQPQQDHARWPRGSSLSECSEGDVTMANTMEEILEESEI
GLP-2R Y182^1.43A (human), sequence (O95838 whole entry Y182A): as the sequence (O95838 whole entry Y252A) above, with Y182A, A252Y counted along it
GLP-2R N334^ECL2 A (human), sequence (O95838 whole entry N334A, the tested form may be a part): as the sequence (O95838 whole entry Y252A) above, with A252Y, N334A counted along it
GLP-2R K414^7.35 A (human), sequence (O95838 whole entry K414A): as the sequence (O95838 whole entry Y252A) above, with A252Y, K414A counted along it
GLP-2R R242^ECL1A (human), sequence (O95838 whole entry R242A): as the sequence (O95838 whole entry Y252A) above, with R242A, A252Y counted along it

Row | Compound | % Binding of WT [1] [%] | % Binding of WT [2] [%] | % Binding of WT [3] [%] | % Binding of WT [4] [%] | % Binding of WT [5] [%] | % Binding of WT [6] [%] | % Binding of WT [7] [%] | % Binding of WT [8] [%] | % Binding of WT [9] [%]
1 | [^125I]GLP-2(1–33, M10Y) (peptide) | 4.2 | 8.3 | 7.3 | 99.2 | 3.4 | 131 | 15.2 | 2.4 | 
2 | CC[C@H](C)[C@H](NC(=O)[C@H](Cc1ccccc1)NC(=O)[C@H](CC(=O)O)NC(=O)[C@H](CCCNC(=N)N)NC(=O)[C@H](C)NC(=O)[C@H](C)NC(=O)[C@H](CC(C)C)NC(=O)[C@H](CC(N)=O)NC(=O)[C@H](CC(=O)O)NC(=O)[C@H](CC(C)C)NC(=O)[C@@H](NC(=O)[C@@H](NC(=O)[C@H](CC(N)=O)NC(=O)[C@H](CCSC)NC(=O)[C@H](CCC(=O)O)NC(=O)[C@H](CC(=O)O)NC(=O)[C@H](CO)NC(=O)[C@H](Cc1ccccc1)NC(=O)[C@H](CO)NC(=O)CNC(=O)[C@H](CC(=O)O)NC(=O)[C@H](C)NC(=O)[C@@H](N)Cc1c[nH]cn1)[C@@H](C)O)[C@@H](C)CC)C(=O)N[C@@H](CC(N)=O)C(=O)N[C@@H](Cc1c[nH]c2ccccc12)C(=O)N[C@@H](CC(C)C)C(=O)N[C@H](C(=O)N[C@@H](CCC(N)=O)C(=O)N[C@H](C(=O)N[C@@H](CCCCN)C(=O)N[C@H](C(=O)N[C@H](C(=O)N[C@@H](CC(=O)O)C(=O)O)[C@@H](C)O)[C@@H](C)CC)[C@@H](C)O)[C@@H](C)CC [Human GLP-2 (1–33)] |  |  |  |  |  |  |  |  | 3.0 ± 1.1
